Results as given in the RNAGym collection of RNA variant scans (doi:10.1073/pnas.2313332121).

B1: TPR t1 (parent)
chain: GACCAAUCUGCCCUCAGAGCUCGAGAACAUCUUCGGAUGCAGAGGAGGCAGGCUUCGGUGGCGCGAUAGCGCCAACGUCCUCAACCUCCAAUGCAUCCCACCACAUGAUGAUGCCUGAAGAGCCUUGGUUUUUUG

Variants of: B1
Assay: polymerase ribozyme fitness, log enrichment relative to wild type (log ratio); higher = more active; in vitro selection for triplet polymerase activity
Summary of the method: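 Only genotypes with ≥10 input reads and ≥1 read per output were kept after Illumina sequencing of input and output libraries. These libraries were PCR-built, transcribed mutants of each subunit of a heterodimeric triplet polymerase ribozyme, each put through one triplicate in vitro selection round with frozen incubation at −7 °C, gel excision of extended constructs, streptavidin-bead capture and RT-PCR. Fitness is a logarithmic ratio of genotype enrichment to wild-type enrichment, from inverse-variance-weighted replicate averages, with the logarithm in base 2.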

Variant	polymerase ribozyme fitness (log ratio)
U54G C56G C80G A84G G117U	-6.69
G52U C73U U96G A121G	1.57
C53U G71U U81A C123U G135A	-0.21
C53A U54A C56U C101U	0.471
U54C G93C G117A	-2.18
C56A C80U G120C C123G	-0.961
C53A C70U G117A A121C	-1.08
G52U A95G	-0.694
U55A U81A G107U A111U	-4.76
C53A G61A U78G	0.644
C53G G117C	-3.47
C53G G120U	-0.149
C53U U126C	-1.07
G52U C73U U129C	-1.39
C53A U54A C62U C80A C114A C124G U125A	-6.53
U54G C89U	-0.559
G52U C72U C80U C98U	-3.28
G52U C62U C82A C102U C123G	-2.65
U54G C56G A83C	-2.03
U55A G93A A121U	1.57
G52U U106G	-3.09
C53U C99U	-2.93
C53A G60A U133A	-1.16
C53A G61A C79A	-0.911

Variant	polymerase ribozyme fitness (log ratio)
C53G U78C U81C U106A	-3.38
C56A C82A G128A	-2.53
C56A C72U C104A	-1.61
C53U U129A	-1.24
U54C C56U U133G	0.0417
U55C C62G	-1.97
U55A G57A U112G	-0.322
U55A G63A C85G C88G	-2.1
U54G C56G C72A G93A C124A U125A	-2.75
U54C C72U C82U A83C C115G G117A U129C	-4.96
G52U G93U G110U	-3.97
C56A C88U G120U	-0.86
C53U C56U A91U	-1.65
U55C U125A	-1.11
C56A U78C	-0.456
C56A U78A	0.796
C56A U81A G117A	-1.94
G52U U59G C88A C101U	-1.76
U54A U87A G117U	-2.44
U54G G69U G117U	-3.75
U54G C72A	-1.41
C56A A83C	-0.237
C53U G107U	-4.06
C53A U130A	0.226

Variant	polymerase ribozyme fitness (log ratio)
G52U C72U U78C A121C	1.26
U54C C73U A83U G113U U134G	-2.89
C56A A119G	0.651
U54G A91C G113U A121C	-2.85
G52U A83U C98U	-2.49
U55C C56U	0.598
C53U A83C U87C	0.394
C53G G71U	-0.129
C53A G60A	-0.364
U55G C79A C82U	-1.09
C53G C123A	0.261
C53G U130A	-0.508
U55G G63U A108G	-2.44
C53U C56A	-0.566
C56A C101A	-0.979
C53U G63A	-1.18
G52U C98U	-2.89
C56G	-0.465
C56A	-0.243
C56A A68G G120C	-4.19
C53A G63U U81G A83U G120C	-3.85
U55G G77C A100U G120C U131A	0.465
U54C C97G C123U	-2.86
U55C G58A U92C	-0.821

Variant	polymerase ribozyme fitness (log ratio)
C53G C115G	-1.44
U55C C82A	0.163
C53G C114U G127C	-2.8
U55A G69C C104U C115A	-0.166
G52U U130C	-0.807
C53G C101G	-1.65
U54A C70G	-2.37
C53U G120A U130A	0.491
C53A C72G	0.124
C53G C79A G120C U133A	-4.39
G52U G61U U81C C115U	-4.28
C53A A74U C89U	-0.387
C53A C70U C115A A118U	-1.34
C53U C70U A74G	-3.92
G52U C88U C98A G120U	-5.88
U54G C86U G117U	-2.55
C53U G60A A74C	-0.941
C56A G69U A119G	0.438
C53A G71U G128C	-2.77
C53G U92A	-3.48
U54A C98G U112C	-3.86
U54C C115A	-0.609
U54C C115U	-0.738
C56A G60A U116G G135A	-3.36

Variant	polymerase ribozyme fitness (log ratio)
U54G G57U G120A	0.132
U54G G117A	-2
C53G C86A	-1.75
C56A C86G C102A	-3.16
C53U G69A A103C G120U G128C U131G	-6.03
C53A C72G C88U C123G	1.36
U55A G69U C82G	0.171
C53A C123G	2.31
C53A G57C U78A U112A A119G	2.05
C56G C86U	0.0765
C53G C56G	-0.593
C53G C56A	-0.204
C53U U55G	-0.16
C56G A103U U109G	-6.5
C53G G60C C98A C102A	-6.1
C53U C79G	-1.2
U54G U125A U126A	-2
C53U U133A	-0.343
C53U A74C	-0.315
C53U C123G	1.61
C53A G71U C86U A100U G110U	-4.31
C56G C94U	-0.644
U54C G61C C73A G93U	-2.61
C53U G63U A90C C104A A121G C123A	-4.29

Variant	polymerase ribozyme fitness (log ratio)
G52U G69A C94A C104U A118G	-5.65
C53U G110U	-1.81
C53U G110C	-3.51
C53U G69U C70U C82U	-0.71
G52U C73G U92C C104U U116C U129A	-4.98
U54G C88A A105U	-2.56
G52U C99U U132C	-4.08
C53G G77C	-0.807
C53U U92A G113A G117A C124A	-5.57
U54A G113U C114G A121C	-2.43
U55C G69C C76U C89A A121U U125G	-4.56
U55G C85A	-1.66
C56A C123U C124U	1.2
C56A C124U	1.18
C56A C124G	1.08
C53A G93A	-0.768
C53G C80G C115A	-2.69
C56A G122A	-0.936
G52U C70U U78A C101G G128A	-3.89
G52U C76A A105U	-3.02
U54A C82U G113A	-1.2
U54A C70G C88U	-3.24
C56A C79A A95C C101U U129A	-4.76
C56A G107C	-5.28

Variant	polymerase ribozyme fitness (log ratio)
C53A G71A C85A	-4.06
C56G C64G	-7.2
G52U C123A	-0.303
C53G C72A C82G	-0.867
C56A G71A U78G G128C U129A	-4.83
C56A A68G	-2.75
U54A C115G	-2.09
G52U G60A G69A C82A C102U C123G	-6.73
C53A C79A	-3.06
C53A C56A G77C C89G	-0.889
C53A U55A C88U C89U	-0.643
C56G C98A U112A C123A	-4.9
C53U C85G	-2.01
U55C G61A	-0.329
C53A A74U U125A	-1.05
C53G G69C	-0.98
C53A C79U C94G C101A	-1.64
G52U C82A A83U G127C	-2.33
C53G U92G A105U	-6.44
G52U A121C	1.02
C53A C114A	-1.87
U54G U109G	-4.29
U54A U106A C124A U129C	0.971
